Data taken from publication PMC5566211.

Assays:
Assay in all cases: purified protein
Conditions in all cases: phosphate-buffered saline 50 mM, pH 7.0, 37 °C
[1] = tested on: CC(=O)OCC1=C(C(=O)O)N2C(=O)[C@@H](NC(=O)Cc3cccs3)[C@H]2SC1
[2] = tested on: CC(C)(O/N=C(\C(=O)N[C@@H]1C(=O)N2C(C(=O)[O-])=C(C[n+]3ccccc3)CS[C@H]12)c1csc(N)n1)C(=O)O
[3] = tested on: CC1=C(C(=O)O)N2C(=O)[C@@H](NC(=O)[C@H](N)C3=CCC=CC3)[C@H]2SC1
[4] = tested on: CCN1CCN(C(=O)N[C@@H](C(=O)N[C@@H]2C(=O)N3C(C(=O)O)=C(CSc4nnnn4C)CS[C@H]23)c2ccc(O)cc2)C(=O)C1=O
[5] = tested on: CO/N=C(\C(=O)N[C@@H]1C(=O)N2C(C(=O)O)=C(COC(C)=O)CS[C@H]12)c1csc(N)n1
[6] = tested on: CO/N=C(\C(=O)N[C@@H]1C(=O)N2C(C(=O)O)=C(CSc3nc(=O)c(=O)[nH]n3C)CS[C@H]12)c1csc(N)n1
[7] = tested on: CO/N=C(\C(=O)N[C@@H]1C(=O)N2C(C(=O)[O-])=C(C[N+]3(C)CCCC3)CS[C@H]12)c1csc(N)n1
[8] = tested on: C[C@@H](O)[C@H]1C(=O)N2C(C(=O)O)=C(S[C@@H]3CN[C@H](C(=O)N(C)C)C3)[C@H](C)[C@H]12
[9] = tested on: C[C@H]1[C@H](NC(=O)/C(=N\OC(C)(C)C(=O)O)c2csc(N)n2)C(=O)N1S(=O)(=O)O
[10] = tested on: Cc1nnc(SCC2=C(C(=O)O)N3C(=O)[C@@H](NC(=O)Cn4cnnn4)[C@H]3SC2)s1
[11] = tested on: Cc1onc(-c2ccccc2)c1C(=O)N[C@@H]1C(=O)N2[C@@H]1SC(C)(C)[C@@H]2C(=O)O

## PAD-1 (Paramesorhizobium deserti)
[1]
  Km: 91.59 µM
  kcat: 15.2 s⁻¹
  kcat/Km: 166000 M⁻¹ s⁻¹
[2]
  Km: 110.04 µM
  kcat: 12.1 s⁻¹
  kcat/Km: 110000 M⁻¹ s⁻¹
[3]
  Km: 347.9 µM
  kcat: 31.8 s⁻¹
  kcat/Km: 91300 M⁻¹ s⁻¹
[4]
  Km: 47.80 µM
  kcat: 15.1 s⁻¹
  kcat/Km: 315000 M⁻¹ s⁻¹
[5]
  Km: 137.08 µM
  kcat: 20.1 s⁻¹
  kcat/Km: 146000 M⁻¹ s⁻¹
[6]
  Km: 90.84 µM
  kcat: 16.3 s⁻¹
  kcat/Km: 179000 M⁻¹ s⁻¹
[7]
  Km: 108.40 µM
  kcat: 10.4 s⁻¹
  kcat/Km: 95900 M⁻¹ s⁻¹
[8]
  Km: 389.69 µM
  kcat: 24.2 s⁻¹
  kcat/Km: 62200 M⁻¹ s⁻¹
[9]
  Km: 276.08 µM
  kcat: 39 s⁻¹
  kcat/Km: 141000 M⁻¹ s⁻¹
[10]
  Km: 89.16 µM
  kcat: 22.6 s⁻¹
  kcat/Km: 253000 M⁻¹ s⁻¹
[11]
  Km: 383.96 µM
  kcat: 58.7 s⁻¹
  kcat/Km: 153000 M⁻¹ s⁻¹
